# Assay results published in the supplement of paper PMC9170038.
# Tested on: MS2 coat protein
# Test: apparent KD of MS2 coat protein; designed switch direction (-1 OFF switch, 1 ON switch): -1; higher = weaker reporter binding
# Method in brief: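 Designed RNA switches were transcribed on Illumina chips by stalled E. coli RNA polymerase and titrated with SNAP-549-labelled MS2 coat protein from 0.7 or 1.5 nM, doubling to 3 µM. Step length ran from 0.8–1.5 h at the lowest concentration to 10–20 min at the highest. The apparent KD is the median over clusters for each design, from curve-fitted normalised cluster fluorescence.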
# [1] = Eterna round: R95, input ligand: FMN 200 uM
# [2] = Eterna round: R95, input ligand: microRNA oligo, concentration not stated
# [3] = Eterna round: R95, input ligand: none
# [4] = input ligand: microRNA oligo, concentration not stated
Sequence,apparent KD of MS2 coat protein [1] [nM],apparent KD of MS2 coat protein [2] [nM],apparent KD of MS2 coat protein [3] [nM],apparent KD of MS2 coat protein (input ligand: FMN 200 uM) [nM],apparent KD of MS2 coat protein [4] [nM],apparent KD of MS2 coat protein (input ligand: none) [nM]
"ACGUGAUAUCUGUCGGUGGACAUGAGGAUCACCCAUGUAAGCUUCUUGCUCGUCUUAUAACCCGGUGACAGACCUUC [Zalaso] (puzzle: Sensor v3, turn-off variant 1)",42.8,449,47,–,–,–
"ACGUGAUAUCUGUCGGUGGACAUGAGGAUCACCCAUGUAAGCUUUUUGCUCGUCUUAUAACCCGGUGACAGACCUUC [Tixeed] (puzzle: Sensor v3, turn-off variant 1)",33.7,268,37.3,–,–,–
"ACUAAAUAAACAAGCAAUAAUCCAUCGUCUUAUACUAAAACAUGAGGAUCACCCAUGUAACAGGUGGUGUUAAAUAA [JR_Sensorv2_tov2_Sub1202] (Eterna round: R96, puzzle: Sensor v2, turn-off variant 2)",–,–,–,15.4,40.6,19.1
ACUAGAUGAGGAUAUGCAUGUUUUCAUGUUCUUCUAGAUUAACAUGAGGAUCACCCAUGUAGAAGGCGUCUUAU [Exclusion 2 - 30] (puzzle: Exclusion 2),–,18.4,–,–,–,–
"ACUAUCAGAUUCUUAGGGUACAUGAGGAUCACCCAUGUGUACGUCUACGAGGGUUCGAAAAUCAAGCUCCGCUCGUC [Eternabot (L2) Solution 19] (Eterna round: R97, puzzle: Sensor, turn-off variant 1)",–,–,–,99.2,–,91.8
"ACUCAACAGUAGGAUAUCAUCAAACUAUUGUGAUGAGAAGGACUGACAUGAGGAUCACCCAUGUUAACGUGAAG [Mod of Brourd 3 - Jieux - Exclusion 6] (Eterna round: R97, puzzle: Exclusion 6)",–,–,–,41.8,–,28.4
"ACUCUUCUUGUUAGGAUAUGCAUCGGGCUUCCGCAGCAGAAGGAACAUGAGGAUCACCCAUGUCAAAUAAAAUC (Eterna round: R97, puzzle: Brourd's mod of Exclusion 4)",–,–,–,141,–,20.8
"ACUGAACAUGAGGAUCACCCAUGUAAGGAUAUGCCACACGGGCUACAUAGCCAUCAAAGUAGAAGGUGCUGGGA [Eternabot (Original) Solution 15] (Eterna round: R97, puzzle: Exclusion 1)",–,–,–,20.3,–,26.2
"ACUGUGACGUAGGAUAUCUCCUAAUUGCGCCGGAGAGAAGGACGUACAUGAGGAUCACCCAUGUGCCCUCGGAA [EX6 B.13] (Eterna round: R97, puzzle: Exclusion 6)",–,–,–,300,–,56.4
"ACUUACUGAGGAUAUACAUAGAUUUACAUGAGGAUCACCCAUGUUCCUCUAUGUAUAUAUGUAGAAGGCAGAAGAG [Mat - Exclusion 5 - JL Mod - D35] (Eterna round: R97, puzzle: Exclusion 5)",–,–,–,56.3,–,21.6
"ACUUACUGAGGAUAUACAUAGAUUUACAUGAGGAUCACCCAUGUUCCUCUAUGUAUAUAUGUAGAAGGCAGAAGAU [Mat - Exclusion 5 - JL Mod - D34] (Eterna round: R97, puzzle: Exclusion 5)",–,–,–,56.9,–,18.9
"ACUUACUGAGGAUAUACUUAGAUUUACAUGAGGAUCACCCAUGUUCCUCUAUGUAUAUAUGUAGAAGGCAGAAGAA [JL-ex5-4.35 Malcolm mod] (Eterna round: R97, puzzle: Exclusion 5)",–,–,–,120,–,23.7
"ACUUGUGUUGAGGAUAUGCGCCGGCUCGCUGGCGCAGAAGGCGGCACAUGAGGAUCACCCAUGUCAGUUCGCGC [salish99_ex6_r004_001] (Eterna round: R97, puzzle: Exclusion 6)",–,–,–,138,–,16.8
AGAAAGCAAGGAUAUACAAGGAAACGACGGAAAGUAGAGAGACAUGAGGAUCACCCAUGUAGAAGGUGCGAGAG [JR_Exclu2_Sub033] (puzzle: Exclusion 2),32.1,24.5,29.1,–,–,–
AGAAAGGCAGGAUAUCGAUAAUAAAACAUGAGGAUCACCCAUGUGAGGCCGCGUGUAACUCGAGAAGGGCUACACG [Biarquma] (puzzle: Exclusion 5),16.1,16.6,15.4,–,–,–
"AGAAAUGCCCAUGACCGCAAGCUUUUUGCUUGUCUUACCACAUGAGGAUCACCCAUGUGACAUGGGCUCCUGAUAAU [Onlaleti] (puzzle: Sensor v3, turn-off variant 2)",14.7,11.4,12.3,–,–,–
"AGAAAUGCCCAUGGCCACAAGCUUUUUGCUUGCCUUACCACAUGAGGAUCACCCAUGUGACAUGGGCUCCUUAUAAU [Teoredale] (puzzle: Sensor v3, turn-off variant 2)",15.3,13.1,14,–,–,–

Sequence,apparent KD of MS2 coat protein [1] [nM],apparent KD of MS2 coat protein [2] [nM],apparent KD of MS2 coat protein [3] [nM],apparent KD of MS2 coat protein (input ligand: FMN 200 uM) [nM],apparent KD of MS2 coat protein [4] [nM],apparent KD of MS2 coat protein (input ligand: none) [nM]
"AGAAAUGCCCAUGGCCGCAAGCUUCUUGCUUGUCUUACCACAUGAGGAUCACCCAUGUGACAUGGGCUCCUUAUAAU [Xeceenqu] (puzzle: Sensor v3, turn-off variant 2)",12.5,9.59,11.3,–,–,–
"AGAAAUUCAAGAGGAUAUCACAUGAGGAUCACCCAUGUAUAGCGCGCUACGCUAGUCCUCGUAUUUGAGAAGGUUUGAUAAAAG [Mat - Exclusion NG 2 - Mod of JL - D77] (Eterna round: R96, puzzle: Exclusion NG 2)",–,–,–,14.3,14.3,15.7
"AGAACACAUGAGGAUCACCCAUGUCAGGAUAUCGACUGAACAGCUUCGGCUGUUCAGUCGAGAAGGGACAAUUA [Brourdxlusion 6 - Jieux - Exclusion 1] (Eterna round: R97, puzzle: Exclusion 1)",–,–,–,120,–,55.8
"AGAAUGGUACAGGAUAUAGCAUCUAACUGCAUGCUAGAAGGGUAUACAUGAGGAUCACCCAUGUAGUCGUGGAU [Eternabot (L1) Solution 13] (Eterna round: R97, puzzle: Exclusion 6)",–,–,–,55.2,–,37.4
"AGAAUUGCCCAUGGCCGCAAGCUUUUUGCUUGUCUUACCACAUGAGGAUCACCCAUGUGACAUGGGCUCCUUAUAAU [Anargees] (puzzle: Sensor v3, turn-off variant 2)",13.9,9.32,11.8,–,–,–
AGACAGUCAGGAUAUACAUGAGGAUCACCCAUGUUGAGAUGAGAAAGGGCAGGAAUAGGUAGAAGGGACGAGAG [JR_Exclu3_Sub037] (puzzle: Exclusion 3),30.5,20.1,26.2,–,–,–
AGACAGUCAGGAUAUACAUGAGGAUCACCCAUGUUGAGAUGUGAAAGGGCGGGAGUAGGUAGAAGGGACGAGAG [JR_Exclu3_Sub039] (puzzle: Exclusion 3),27.3,26.7,37.5,–,–,–
"AGACAUGAGGAUCACCCAUGUAGUGGUCCUGGUACGCGAACGUAGGAUAUAUACUGGAUUCCAAUGUAGAAGGACGACACCGCG [Tetege] (Eterna round: R96, puzzle: Exclusion NG 3)",–,–,–,90,112,149
"AGACUUAUAGGAUAUACAUGAGGAUCACCCAUGUCGCCAGGCGGUAGCAGAGUCUUUUGUAGAAGGAUGACAAC [Eternabot (Original) Solution 35] (Eterna round: R97, puzzle: Exclusion 3)",–,–,–,20.6,–,21.2
"AGAGACAAUCUAGGAUAUGUGUAUGAAGAGUGCGCAGAAGGAGACAUGAGGAUCACCCAUGUACAGCGACAGAAGACGACAACC [Matt's Exclusion 2] (Eterna round: R96, puzzle: Exclusion NG 1)",–,–,–,14.4,36.2,17.5
"AGAGAGAUAGGAUAUACGUGGUUUUCUCAGGUCUAAGUUCAACAUGAGGAUCACCCAUGUAGAAGGAUCAAAAG [EX2 C.14] (Eterna round: R97, puzzle: Exclusion 2)",–,–,–,690,–,156
AGAGAGUCAGGAUAUCGAAGGGAGAGAAAAGGAGAGAGGUACGAGAAGGGACAUGAGGAUCACCCAUGUAGGUG [JR_Exclusion4)Sub015] (puzzle: Exclusion 4),279,413,622,–,–,–
"AGAGUGCUGCGAGGAUAUACAUGAGGAUCACCCAUGUAAAAGUGUGAGGCAAAGCCUCACACUAUGUAGAAGGCGCAGUACUCA [Mat - Exclusion NG 2 - Mod of JL - D11] (Eterna round: R96, puzzle: Exclusion NG 2)",–,–,–,20.2,12.6,19.3
"AGAGUGCUGCGAGGAUAUACAUGAGGAUCACCCAUGUUAUCGUGUGAGGCUUUGCCUCACACGAAGUAGAAGGCGCAGUACUCA [Mat - Exclusion NG 2 - Mod of JL - D100] (Eterna round: R96, puzzle: Exclusion NG 2)",–,–,–,13.4,7.69,14.2
"AGAGUGCUGCGAGGAUAUACAUGAGGAUCACCCAUGUUUUCCUGUGAGGCAUAGCCUCACAGGAUGUAGAAGGCGCAGUACUCA [Mat - Exclusion NG 2 - Mod of JL - D29] (Eterna round: R96, puzzle: Exclusion NG 2)",–,–,–,13.5,9.44,13.7
AGAGUGUGAGGAUAUAUGGUGAAGAUGAAGGGAUAGAAGGAGUAGAAGGUACAUGAGGAUCACCCAUGUUAGGA [JR_Exclu4_Sub076] (puzzle: Exclusion 4),–,23.1,–,–,–,–
